# Measured values taken from US20110059469A1 (UNIVERSITY OF TOKYO, published 2011).
# T1: human CLDN4 (human, UniProt O14493 1-209)
# T1 construct: also called hCLDN4
# T1 sequence: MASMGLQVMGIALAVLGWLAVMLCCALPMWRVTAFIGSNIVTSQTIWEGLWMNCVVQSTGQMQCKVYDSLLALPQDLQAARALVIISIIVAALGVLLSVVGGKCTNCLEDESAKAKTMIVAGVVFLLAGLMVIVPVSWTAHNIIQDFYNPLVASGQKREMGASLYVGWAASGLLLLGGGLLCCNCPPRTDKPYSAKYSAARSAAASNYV
# T2: human CLDN9 (human, UniProt O95484 1-217)
# T2 construct: also called hCLDN9
# T2 sequence: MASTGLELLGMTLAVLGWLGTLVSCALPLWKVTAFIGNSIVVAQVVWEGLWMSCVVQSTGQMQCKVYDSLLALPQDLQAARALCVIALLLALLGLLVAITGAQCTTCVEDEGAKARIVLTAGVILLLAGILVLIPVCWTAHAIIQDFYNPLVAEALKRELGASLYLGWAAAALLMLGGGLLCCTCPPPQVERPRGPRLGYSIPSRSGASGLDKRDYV
# What was measured:
# human CLDN4 = molecular target: T1, human CLDN4; experiment: flow cytometry on Ba/F3 cells forced to express human CLDN4
# human CLDN9 = molecular target: T2, human CLDN9; experiment: flow cytometry on Ba/F3 cells forced to express human CLDN9
binding result (human CLDN4),binding result (human CLDN9),Binder
binds,binds,"AE1-16 (antibody, V domains shown, also called anti-human CLDN6 monoclonal antibody AE1-16) VH: EVQLQQSGPELVKPGASVKISCKASGYSFTGYFMNWVKQSHGKSLEWIGRINPYNGDTFYNQKFKGKATLTVDKSSNTAHMELRSLTSEDSAVYYCARVLFLDFDDPYLMDYWGQGTSVTVSS VL: ENVLTQSPAIMSATLGEKVTMSCRATSNVKYMYWYQQKSGASPKLWIYYTSNLASGVPARFSGSGSGTSYSLTISSVEAADAATYYCQQFTSSPSTFGAGTKLELK"
binds,binds,"AE49-11 (antibody, IgG2b, V domains shown, also called AE49-11 antibody; original IgG2b antibody) VH: EVQLQQSGPELVKPGASVKISCKASGYSFTGYFMNWVKQSHGKSLEWIGRINPYNGDTFYNQKFKGKATLTVDKSSSTAHMELRSLTSEDSAVYYCARVLFLDFDDPYLMDYWGQGTSVTVSS VL: ENVLTQSPAIMSATLGEKVTMSCRATSNVKYMYWYQQKSGASPKLWIYYTSNLASGVPARFSGSGSGTSYSLTISSVEAADAATYYCQQFTSSPSTFGAGTKLELK"
–,binds,"AB3-1 (antibody, V domains shown, also called anti-human CLDN6 monoclonal antibody AB3-1) VH: EVQLQQSGPELVKPGGSMKISCKASGYSFTGYTMNWVKQSHGKNLEWIGLINPYNGGISYNQKFKDKATLTMDKSSSTAYMELLSLTSEDSAIYFCARDYRYEGFDYWGQGTLVTVSA VL: QIVLTQSPAIMSASLGERVTMTCTASSVVISTYLHWYQQKPGSSPKLWIYSTSNLASGVPVRFSGSGSGTSYSLTISSMEAEDAATYYCHQYHRSPWTFGGGTKLEIK"
